Assay results as given in US7951210B2, “Support-colouring means” (Doublet Luc, priority 2004, dated 2011).

Legend:
[1] = Restoration of the enzymatic activity (ABTS oxidation) after photolysis at 366 nm; type: biochemical; settings: after irradiating for 30 min at 366 nm; ABTS 1 mM, H2O2 1 mM
Method: The oxidation catalyst is reactivated by irradiation of the solutions of the various conjugates (1 mg/ml) in sodium acetate buffer (25 mM, pH 4.4). Photolysis takes place at 366 nm (100 W UV lamp, 7 mW/cm^2 at a distance of 30 cm); the irradiation times vary from 5 to 30 min. This stage is advantageously carried out in the presence of 5 mM of 2-ethanolamine in order to trap possible cross reactions between photolysis products and hemoglobin.
The restoration of the enzymatic activity is determined in microtitration plates as described above in the presence of ABTS (1 mM) and H2O2 (1 mM).

[2] = Inhibition of the oxidation of ABTS by NPE-hemoglobin conjugates (microtitration plate, H2O2); type: biochemical; settings: oxidation of ABTS 1 mM, H2O2 1 mM, sodium acetate buffer pH 5, before dialysis
Method: Bovine hemoglobin in aqueous solution (32 μM) is treated with different concentrations of 1-(2-nitrophenyl)ethyldiazoethane (NPE-diazo) in solution in DMSO at 20° C. for 1 h in darkness. The final concentration of DMSO should not exceed 5%. The NPE-diazo concentrations vary from 50 to 100 equivalents with respect to the hemoglobin. The coupling reaction is halted by addition of a 100 mM acetate buffer solution at pH 4.4 (1 equivalent with respect to NPE-diazo). The contact times vary from 10 to 30 min. The reaction mixture is subsequently dialyzed against water, between 4 and 20° C., between 1 and 16 hours, against 1000 volumes of water. The conjugate is stored at 20° C.
The percentage of inhibition of the oxidation of ABTS [diammonium salt of 2,2′-azinobis(3-ethylbenzothiazolinone-6-sulfonic acid), 1 mM] is determined before dialysis on 96-well microtitration plates (Costar, Corning Incorporated) in sodium acetate buffer, […], pH 5, in the presence of 1 mM of hydrogen peroxide. The number of molecules attached per hemoglobin molecule is determined by mass spectrometry (electrospray).

| Substance | activity recovered after irradiation [1] | Residual activity (%) [2] |
| --- | --- | --- |
| Hb-50: Bovine hemoglobin treated with 50 equivalents of 1-(2-nitrophenyl)ethyldiazoethane (NPE-diazo); NPE-hemoglobin conjugate | 57% | 12.6% |
| Hb-75: Bovine hemoglobin treated with 75 equivalents of 1-(2-nitrophenyl)ethyldiazoethane (NPE-diazo); NPE-hemoglobin conjugate | 28% | 5.4% |
| Hb-100: Bovine hemoglobin treated with 100 equivalents of 1-(2-nitrophenyl)ethyldiazoethane (NPE-diazo); NPE-hemoglobin conjugate | 16% | 2.5% |
| Native hemoglobin: Untreated bovine hemoglobin, oxidation catalyst used as 100% activity reference [reference compound] | – | 100% |
